Broadly, the Ki is the equilibrium dissociation constant of an inhibitor or competing ligand from its target. A low value points to tighter binding.

*1 amine or outer side, *2 acyl side, *3 side chain or, on linkers, in order; H or OH if unused. Side-chain parts run from the residue outwards. The star is where a group is joined. C18 diacid = O=C(O)CCCCCCCCCCCCCCCCC(=O)*; γGlu = O=C(O)[C@H](CCC(=O)[*:2])N[*:1]; Isovaleryl = CC(C)CC(=O)*; Ahx = NCCCCCC(=O)O

The labels stand for the following.
B1: Compound 126 (peptide)
peptide: Isovaleryl-APEK([Ahx-γGlu-C18 diacid])PEEDAEPEELQRYYVSLRHYYNWLTRQRY-NH2
SMILES: CC(C)CC(=O)N[C@@H](C)C(=O)N1CCC[C@H]1C(=O)N[C@@H](CCC(=O)O)C(=O)N[C@@H](CCCCNC(=O)CCCCCNC(=O)CC[C@H](NC(=O)CCCCCCCCCCCCCCCCC(=O)O)C(=O)O)C(=O)N1CCC[C@H]1C(=O)N[C@@H](CCC(=O)O)C(=O)N[C@@H](CCC(=O)O)C(=O)N[C@@H](CC(=O)O)C(=O)N[C@@H](C)C(=O)N[C@@H](CCC(=O)O)C(=O)N1CCC[C@H]1C(=O)N[C@@H](CCC(=O)O)C(=O)N[C@@H](CCC(=O)O)C(=O)N[C@@H](CC(C)C)C(=O)N[C@@H](CCC(N)=O)C(=O)N[C@@H](CCCNC(=N)N)C(=O)N[C@@H](Cc1ccc(O)cc1)C(=O)N[C@@H](Cc1ccc(O)cc1)C(=O)N[C@H](C(=O)N[C@@H](CO)C(=O)N[C@@H](CC(C)C)C(=O)N[C@@H](CCCNC(=N)N)C(=O)N[C@@H](Cc1c[nH]cn1)C(=O)N[C@@H](Cc1ccc(O)cc1)C(=O)N[C@@H](Cc1ccc(O)cc1)C(=O)N[C@@H](CC(N)=O)C(=O)N[C@@H](Cc1c[nH]c2ccccc12)C(=O)N[C@@H](CC(C)C)C(=O)N[C@H](C(=O)N[C@@H](CCCNC(=N)N)C(=O)N[C@@H](CCC(N)=O)C(=O)N[C@@H](CCCNC(=N)N)C(=O)N[C@@H](Cc1ccc(O)cc1)C(N)=O)[C@@H](C)O)C(C)C
B2: Compound 130 (peptide)
peptide: Isovaleryl-APEK([Ahx-γGlu-C18 diacid])PEEDATPEELQLYYVSLRHYYNWLTRQRY-NH2
SMILES: CC(C)CC(=O)N[C@@H](C)C(=O)N1CCC[C@H]1C(=O)N[C@@H](CCC(=O)O)C(=O)N[C@@H](CCCCNC(=O)CCCCCNC(=O)CC[C@H](NC(=O)CCCCCCCCCCCCCCCCC(=O)O)C(=O)O)C(=O)N1CCC[C@H]1C(=O)N[C@@H](CCC(=O)O)C(=O)N[C@@H](CCC(=O)O)C(=O)N[C@@H](CC(=O)O)C(=O)N[C@@H](C)C(=O)N[C@H](C(=O)N1CCC[C@H]1C(=O)N[C@@H](CCC(=O)O)C(=O)N[C@@H](CCC(=O)O)C(=O)N[C@@H](CC(C)C)C(=O)N[C@@H](CCC(N)=O)C(=O)N[C@@H](CC(C)C)C(=O)N[C@@H](Cc1ccc(O)cc1)C(=O)N[C@@H](Cc1ccc(O)cc1)C(=O)N[C@H](C(=O)N[C@@H](CO)C(=O)N[C@@H](CC(C)C)C(=O)N[C@@H](CCCNC(=N)N)C(=O)N[C@@H](Cc1c[nH]cn1)C(=O)N[C@@H](Cc1ccc(O)cc1)C(=O)N[C@@H](Cc1ccc(O)cc1)C(=O)N[C@@H](CC(N)=O)C(=O)N[C@@H](Cc1c[nH]c2ccccc12)C(=O)N[C@@H](CC(C)C)C(=O)N[C@H](C(=O)N[C@@H](CCCNC(=N)N)C(=O)N[C@@H](CCC(N)=O)C(=O)N[C@@H](CCCNC(=N)N)C(=O)N[C@@H](Cc1ccc(O)cc1)C(N)=O)[C@@H](C)O)C(C)C)[C@@H](C)O
B3: Compound 127 (peptide)
peptide: Isovaleryl-APEK([Ahx-γGlu-C18 diacid])PEAAAEPEELQRYYVALRHYYNWLTRQRY-NH2
SMILES: CC(C)CC(=O)N[C@@H](C)C(=O)N1CCC[C@H]1C(=O)N[C@@H](CCC(=O)O)C(=O)N[C@@H](CCCCNC(=O)CCCCCNC(=O)CC[C@H](NC(=O)CCCCCCCCCCCCCCCCC(=O)O)C(=O)O)C(=O)N1CCC[C@H]1C(=O)N[C@@H](CCC(=O)O)C(=O)N[C@@H](C)C(=O)N[C@@H](C)C(=O)N[C@@H](C)C(=O)N[C@@H](CCC(=O)O)C(=O)N1CCC[C@H]1C(=O)N[C@@H](CCC(=O)O)C(=O)N[C@@H](CCC(=O)O)C(=O)N[C@@H](CC(C)C)C(=O)N[C@@H](CCC(N)=O)C(=O)N[C@@H](CCCNC(=N)N)C(=O)N[C@@H](Cc1ccc(O)cc1)C(=O)N[C@@H](Cc1ccc(O)cc1)C(=O)N[C@H](C(=O)N[C@@H](C)C(=O)N[C@@H](CC(C)C)C(=O)N[C@@H](CCCNC(=N)N)C(=O)N[C@@H](Cc1c[nH]cn1)C(=O)N[C@@H](Cc1ccc(O)cc1)C(=O)N[C@@H](Cc1ccc(O)cc1)C(=O)N[C@@H](CC(N)=O)C(=O)N[C@@H](Cc1c[nH]c2ccccc12)C(=O)N[C@@H](CC(C)C)C(=O)N[C@H](C(=O)N[C@@H](CCCNC(=N)N)C(=O)N[C@@H](CCC(N)=O)C(=O)N[C@@H](CCCNC(=N)N)C(=O)N[C@@H](Cc1ccc(O)cc1)C(N)=O)[C@@H](C)O)C(C)C
B4: Compound 132 (peptide)
peptide: Isovaleryl-APEK([Ahx-γGlu-C18 diacid])PEADATPEELQRYYVSLRHYYNWLTRQRY-NH2
SMILES: CC(C)CC(=O)N[C@@H](C)C(=O)N1CCC[C@H]1C(=O)N[C@@H](CCC(=O)O)C(=O)N[C@@H](CCCCNC(=O)CCCCCNC(=O)CC[C@H](NC(=O)CCCCCCCCCCCCCCCCC(=O)O)C(=O)O)C(=O)N1CCC[C@H]1C(=O)N[C@@H](CCC(=O)O)C(=O)N[C@@H](C)C(=O)N[C@@H](CC(=O)O)C(=O)N[C@@H](C)C(=O)N[C@H](C(=O)N1CCC[C@H]1C(=O)N[C@@H](CCC(=O)O)C(=O)N[C@@H](CCC(=O)O)C(=O)N[C@@H](CC(C)C)C(=O)N[C@@H](CCC(N)=O)C(=O)N[C@@H](CCCNC(=N)N)C(=O)N[C@@H](Cc1ccc(O)cc1)C(=O)N[C@@H](Cc1ccc(O)cc1)C(=O)N[C@H](C(=O)N[C@@H](CO)C(=O)N[C@@H](CC(C)C)C(=O)N[C@@H](CCCNC(=N)N)C(=O)N[C@@H](Cc1c[nH]cn1)C(=O)N[C@@H](Cc1ccc(O)cc1)C(=O)N[C@@H](Cc1ccc(O)cc1)C(=O)N[C@@H](CC(N)=O)C(=O)N[C@@H](Cc1c[nH]c2ccccc12)C(=O)N[C@@H](CC(C)C)C(=O)N[C@H](C(=O)N[C@@H](CCCNC(=N)N)C(=O)N[C@@H](CCC(N)=O)C(=O)N[C@@H](CCCNC(=N)N)C(=O)N[C@@H](Cc1ccc(O)cc1)C(N)=O)[C@@H](C)O)C(C)C)[C@@H](C)O
B5: Compound 131 (peptide)
peptide: Isovaleryl-APEK([Ahx-γGlu-C18 diacid])PEADAEPEEIQRYYVALRHYYNWLTRQRY-NH2
SMILES: CC[C@H](C)[C@H](NC(=O)[C@H](CCC(=O)O)NC(=O)[C@H](CCC(=O)O)NC(=O)[C@@H]1CCCN1C(=O)[C@H](CCC(=O)O)NC(=O)[C@H](C)NC(=O)[C@H](CC(=O)O)NC(=O)[C@H](C)NC(=O)[C@H](CCC(=O)O)NC(=O)[C@@H]1CCCN1C(=O)[C@H](CCCCNC(=O)CCCCCNC(=O)CC[C@H](NC(=O)CCCCCCCCCCCCCCCCC(=O)O)C(=O)O)NC(=O)[C@H](CCC(=O)O)NC(=O)[C@@H]1CCCN1C(=O)[C@H](C)NC(=O)CC(C)C)C(=O)N[C@@H](CCC(N)=O)C(=O)N[C@@H](CCCNC(=N)N)C(=O)N[C@@H](Cc1ccc(O)cc1)C(=O)N[C@@H](Cc1ccc(O)cc1)C(=O)N[C@H](C(=O)N[C@@H](C)C(=O)N[C@@H](CC(C)C)C(=O)N[C@@H](CCCNC(=N)N)C(=O)N[C@@H](Cc1c[nH]cn1)C(=O)N[C@@H](Cc1ccc(O)cc1)C(=O)N[C@@H](Cc1ccc(O)cc1)C(=O)N[C@@H](CC(N)=O)C(=O)N[C@@H](Cc1c[nH]c2ccccc12)C(=O)N[C@@H](CC(C)C)C(=O)N[C@H](C(=O)N[C@@H](CCCNC(=N)N)C(=O)N[C@@H](CCC(N)=O)C(=O)N[C@@H](CCCNC(=N)N)C(=O)N[C@@H](Cc1ccc(O)cc1)C(N)=O)[C@@H](C)O)C(C)C
B6: Compound 133 (peptide)
peptide: Isovaleryl-APAK([Ahx-γGlu-C18 diacid])PEEDAEPEELQRYYVSLRHYYNWLTRQRY-NH2
SMILES: CC(C)CC(=O)N[C@@H](C)C(=O)N1CCC[C@H]1C(=O)N[C@@H](C)C(=O)N[C@@H](CCCCNC(=O)CCCCCNC(=O)CC[C@H](NC(=O)CCCCCCCCCCCCCCCCC(=O)O)C(=O)O)C(=O)N1CCC[C@H]1C(=O)N[C@@H](CCC(=O)O)C(=O)N[C@@H](CCC(=O)O)C(=O)N[C@@H](CC(=O)O)C(=O)N[C@@H](C)C(=O)N[C@@H](CCC(=O)O)C(=O)N1CCC[C@H]1C(=O)N[C@@H](CCC(=O)O)C(=O)N[C@@H](CCC(=O)O)C(=O)N[C@@H](CC(C)C)C(=O)N[C@@H](CCC(N)=O)C(=O)N[C@@H](CCCNC(=N)N)C(=O)N[C@@H](Cc1ccc(O)cc1)C(=O)N[C@@H](Cc1ccc(O)cc1)C(=O)N[C@H](C(=O)N[C@@H](CO)C(=O)N[C@@H](CC(C)C)C(=O)N[C@@H](CCCNC(=N)N)C(=O)N[C@@H](Cc1c[nH]cn1)C(=O)N[C@@H](Cc1ccc(O)cc1)C(=O)N[C@@H](Cc1ccc(O)cc1)C(=O)N[C@@H](CC(N)=O)C(=O)N[C@@H](Cc1c[nH]c2ccccc12)C(=O)N[C@@H](CC(C)C)C(=O)N[C@H](C(=O)N[C@@H](CCCNC(=N)N)C(=O)N[C@@H](CCC(N)=O)C(=O)N[C@@H](CCCNC(=N)N)C(=O)N[C@@H](Cc1ccc(O)cc1)C(N)=O)[C@@H](C)O)C(C)C

In the assay the target is T1, human NPY2 receptor (human, UniProt P49146 1-381).
T1 construct: whole, on cells; also called hNPY2-R; hNPY2R
T1 sequence (looked up): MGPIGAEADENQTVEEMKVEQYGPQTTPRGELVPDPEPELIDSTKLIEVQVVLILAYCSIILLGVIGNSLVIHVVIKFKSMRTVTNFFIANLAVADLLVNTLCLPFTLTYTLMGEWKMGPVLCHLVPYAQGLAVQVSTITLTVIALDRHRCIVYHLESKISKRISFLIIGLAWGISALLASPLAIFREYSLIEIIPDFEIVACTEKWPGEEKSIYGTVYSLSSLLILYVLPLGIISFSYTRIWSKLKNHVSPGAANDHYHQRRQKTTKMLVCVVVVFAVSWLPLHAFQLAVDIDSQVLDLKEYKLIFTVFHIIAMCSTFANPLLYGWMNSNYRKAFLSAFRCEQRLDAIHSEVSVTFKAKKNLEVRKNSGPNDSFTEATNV
Kind of assay: RLB: displacement of 125I-PYY(1-36) from hNPY2R membranes. A general note: In a radioligand displacement assay an active substance lowers the binding of a labelled ligand.
In turn, B1 showed a Ki of 4.42 nM. On to B2, for which the Ki turned out to be 9.36 nM. Molecule B3 registered an inhibition constant Ki of 3.36 nM. As for B4, the figure is 2.75 nM; as for B5, 1.54 nM; as for B6, 4.68 nM.

These data come from patent US20260015399A1 (Boehringer Ingelheim, published 2026).
